Laboratory results reported in paper PMC3688876.

Target: Apo2L/TRAIL-R1/DR4 (human (endogenous in MCF-7)) (UniProt O00220)
Chain of UniProt O00220 (O00220 24-468): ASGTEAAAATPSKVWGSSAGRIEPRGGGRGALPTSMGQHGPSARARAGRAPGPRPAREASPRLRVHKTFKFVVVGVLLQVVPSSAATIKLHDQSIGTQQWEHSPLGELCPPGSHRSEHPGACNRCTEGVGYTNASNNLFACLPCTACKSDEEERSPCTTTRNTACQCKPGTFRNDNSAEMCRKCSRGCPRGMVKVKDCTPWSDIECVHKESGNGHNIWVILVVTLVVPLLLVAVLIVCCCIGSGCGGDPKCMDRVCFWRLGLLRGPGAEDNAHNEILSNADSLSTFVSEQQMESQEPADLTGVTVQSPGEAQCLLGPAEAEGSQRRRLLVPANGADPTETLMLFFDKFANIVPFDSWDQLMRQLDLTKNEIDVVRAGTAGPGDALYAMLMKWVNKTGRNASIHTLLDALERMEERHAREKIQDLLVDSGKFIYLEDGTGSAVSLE

“Human recombinant Apo2L/TRAIL (from UniProt P50591 1-281) (ligand)” showed a cellular apoptosis (viability by crystal violet, OD570) of MCF-7 PTHrP overexpressing cells pre-incubated with antagonistic anti-TRAIL-R1 antibody (10 µg/ml), then treated with 100 ng/ml Apo2L/TRAIL of 50%.
